{"source": "patent US20210371503A1", "about": "(UNIVERSITY OF COLOGNE, published 2021)", "binders": {"B1": {"name": "MnC5t2p1_G1 (antibody, V domains shown)", "VH": "QMQLVQSGPEVKKPGTSVKVSCKASGFTFTSSAVQWVRQARGQRLEWIGWIVVGSGNTDYAQKFQERVTITRDVSTSTAYMELSSLRSEDTAVYYCAAPRCSGGSCYDGFDIWGQGTMVTVSS", "VL": "EIVLTQSPGTLSLSPGERATLSCRASQSVSSSYLAWYQHKPGQAPRLLICGASSRATGIPDRFSGSGSGTGFTLTISRLEPEDFAVYYCQQYGSSPWTFGQGTKVEIK"}, "B2": {"name": "MnC4t2p1_E6 (antibody, V domains shown)", "VH": "EVQLVESGGHLVQPGRSLRLSCAASGFTFDDYAMHWVRQVPGKGLEWVSGISWNGGILGYADSVKGRFTISRDNAKNSLYLQMRSLRTDDTALYYCAKDLRRQDYYADWYFDLWGRGTLVTVSS", "VL": "DIQMTQSPSSVSASVGDRVTITCRASQGISSWLAWYQQKPGKAPKLLIYAASTLLSAVPSRFSGSGSGTDFTLTISSLQPEDFATYYCQQGNSFPFTFGPGTKVDV"}, "B3": {"name": "MnC4t2p2_A4 (antibody, V domains shown)", "VH": "QVQLVQSGSELKKPGASVKISCKASGYIFINYAMNWVRQAPGQGLEWMGWINTNTGNPTYAQDFTGRFVFSLDTSLSTAYLQISSLEAEDTAVYYCAKIGSRNSLGVWGQGTLVTVSA", "VL": "EIVLTQSPGTLSLSPGERATLSCRASHSVDRSYLAWYQQKPGLAPRLLIYGASSRATGIPDRFSGSGSGTDFTLTISRLEPEDFALYYCQHFGTSSVTFGRGTRLEIK"}, "B4": {"name": "HbnC2t1p2_D9 (antibody, V domains shown)", "VH": "QVQLVESGGGVVQPGRSLRLSCAASGFTFSSYGMHWVRQAPGKGLEWVAVIWYDGRNKYYVDSVKGRFTISRDNSKNTLYLQISSLRAEDTAVYYCARAARRPVVTDTMAYYMDVWGKGTTVTVSS", "VL": "EIVLTQSPATLSLSPGERATLSCRASLSLSSYLAWYQQKPGQAPRLLIYDASNRATGIPARFSGSGSGTDFTLTISSLEPEDFAVYYCQQRSNWPPTWTFGQGTKAEIKR"}, "B5": {"name": "HbnC3t1p1_C6 (antibody, V domains shown)", "VH": "B1 VH with D59N, V74M, R100H, G103S, G104T, S105I", "VL": "not shown"}, "B6": {"name": "HbnC3t1p2_C6 (antibody, V domains shown)", "VH": "QMQLVQSGPEVKKPGTSVKVSCKASGFTFSSSAVQWVRQARGQRLEWIGWIVVGSGNTNYAQKFQGRVTITRDMSTRTAYMELSSLRSEDTAMYYCAAPYCSSTRCYDAFDIWGQGTMVTVSS", "VL": "not shown"}, "B7": {"name": "HbnC3t1p1_F4 (antibody, V domains shown)", "VH": "QVQLVESGGGVVQPGRSLRLSCAATGFTFRRYGMHWVRQAPGKGLEWVAGILFDGSNKYYVDSVKGRFTISRDSSRNTLYLQLNSLRREDTAVYYCAKGGDYEWELLESWGQGTLVTVSS", "VL": "DIQMTQSPSTVSASVGDRVTITCRASQSIDNWLAWYQEKPGKAPKVLIYKASSLESGVPSRFSGRGSGTEFTLTISSLQPGDFATYYCQHYHSFPLTFGGGTKVDIK"}, "B8": {"name": "HbnC3t1p1_G4 (antibody, V domains shown)", "VH": "EVQLVESGGGLVQPGGSLRLSCAASGFTVSSNYMSWVRQAPGKGLEWVSVIYSGGSTFYADSVKGRFTISRDNSKNTLYLQMNSLRAEDTAVYYCARDFGDFFFDYWGQGTLVTVSS", "VL": "EIVLTQSPGTLSLSPGERATLSCRASQSVSSYLAWYQQKPGQAPRLLIYGVSSRATGIPDRFSGSGSGTDFTLTISRLEPEDFAVYYCQQYGSSPRTFGQGTKVEIK"}, "B9": {"name": "HbnC3t1p2_B10 (antibody, V domains shown)", "VH": "B8 VH with T28I, F99Y, F102Y", "VL": "B8 VL with Y49S, V51A, T56A, S76N, V104L"}, "B10": {"name": "HbnC4t1p1_D5 (antibody, V domains shown)", "VH": "EVQLVESGGGLVQPGRSLRLSCAASGFTFDDYAMHWVRQAPGKGLEWVSGISWNSGSIGYADSVKGRFTISRDNAKNSLYLQMNSLRAEDTGLYYCAKDINYDSGGYHKNYFDYWGQGTLVTVSS", "VL": "DIQMTQSPSSLSASVGDRATITCRASQSISSYLNWYQEKPGKAPKLLIYAASSLQSGVPSRFSGSGSGTDFTLTISSLQPEDFATYYCQQSYSNPLTFGGGTKVEIK"}, "B11": {"name": "FnC1t2p1_G5 (antibody, V domains shown)", "VH": "QVQLVQSGSELKKPGASVKVSCKASGYTFLRFAMNWLRQAPGQGLEWMGWIDTNTGTPTYAQGFTGRFVFSLDTSVSTAYLQISSLKAEDTAVYYCARSLRGANLVPWGQGTLVTVSS", "VL": "DIQMTQSPSSLSASVGDRVTITCQASQDVSNYLNWYQQQPGKAPKLLIYDAFNLETGVPSRFSGSGSGTDFTFTISSLQPEDIATYYCQQYDNLPLTFGGGTKVEIK"}, "B12": {"name": "CnC2t1p1_B4 (antibody, V domains shown)", "VH": "QVQLVQSGAEVKKPGASVKVSCKASGYTFTSYGISWVRQAPGQGLEWMGWISAYNGNTNYAQKLQGRVTMTTDTSTSTAYMELRSLRSDDTAVYYCARDGELLGWFDPWGQGTLVTVSS", "VL": "QSALTQPASVSGSPGQSITISCTGTSSDVGSYNLVSWYQQHPGKAPKLMIYEGSKRPSGVSNRFSGSKSGNTASLTISGLQAEDEADYYCCSYAGSSTWVFGGGTKLTVL"}, "B13": {"name": "CnC2t1p1_D6 (antibody, V domains shown)", "VH": "EVQLVESGGGLVQPGRSLRLSCTASGFTFGDYAMSWFRQAPGKGLEWVGFIRSKAYGGTTEYAASVKGRFTISRDDSKSIAYLQMNSLKTEDTAVYYCTRVRRLWFGSYYYGMDVWGQGTTVTVSS", "VL": "not shown"}, "B14": {"name": "CnC2t1p1_E12 (antibody, V domains shown)", "VH": "B13 VH with A81V", "VL": "not shown"}, "B15": {"name": "CnC2t1p1_E8 (antibody, V domains shown)", "VH": "QVQLVQSGAEVKNPGASVKVSCKASGYIFTNYYIHWVRQAPGQGLEWVGWIHSLSGGTSYAQKFQGRVTLTRDASIRTAYMELSRLGSDDTALYYCARASVSTITDFDYWGQGTLVAVSS", "VL": "B12 VL with S27G, M49V, G53A, S54T, S65F, G66A, S96V, S97R, W99V"}, "B16": {"name": "CnC2t1p1_G6 (antibody, V domains shown)", "VH": "B15 VH with N13K, S75P, R85G, L93V, S102A", "VL": "B12 VL with S27G, V29I, H41Y, M49I, G53A, S65F, G66A, S96V, S97R, W99V"}, "B17": {"name": "FnC1t1p2_A5 (antibody, V domains shown)", "VH": "QVQLVQSGAEVKKPGASVKVSCKASGYTFTSYDINWVRQATGQGLEWMGWMNPNSGNTGYAQKFQGRVTMTRNTSISTAYMELSSLRSEDTAVYYCARATTDCSSTSCWSLDFWSGYYTGGREKIFDYWGQGTLVTVSS", "VL": "not shown"}, "B18": {"name": "FnC1t2p1_D4 (antibody, V domains shown)", "VH": "B11 VH", "VL": "B11 VL"}, "B19": {"name": "CnC2t1p1_B10 (antibody, V domains shown)", "VH": "QVQLVQSGAEVKKPGSSVKVSCKASGGTFSSYAISWVRQAPGQGLEWMGGIIPIFGTANYAQKFQGRVTITADKSTSTAYMELSSLRSEDTAVYYCARVSGYDSSGYWGDYWGQGTLVTVSS", "VL": "EIVLTQSPATLSLSPGERATLSCRASQSVSSYLAWYQQKPGQAPRLLIYDASNRATGIPARFSGSGSGTDFTLTISSLEPEDFAVYYCQQRSNWPPALTFGGGTKVEIK"}, "B20": {"name": "MnC1t3p1_G9 (antibody, V domains shown)", "VH": "EVQLLESGGGLVQPGGSLRLSCAASGFTFRNYAMTWVRQAPGKGLEWVSGISDSGDRTYNADSVKGRFSISRDNSKNTLHLQMNSLRAEDTAVYYCALASGSYFGGANYWGQGTLVTVSS", "VL": "QAVVTQEPSLTVSPGGTVTLTCGSSTGPVTSDHYPYWFQQKPGQAPTTLIYDTNNKHSWTPARFSGSLLGGKAALTLSGAQPEDEAEYYCLLSYTGARVFGGGTKLTVL"}, "B21": {"name": "MnC2t1p1_A3 (antibody, V domains shown)", "VH": "EVQLVESGGGLVQPGGSLRLSCAASGFTVSSNYMSWVRQAPGRGLEWVSVIYSGGSTFYADSVKGRFTISRDNSKNTLYLQMNSLRPEDTAVYYCATGARFGESPFDYWGQGTLVTVSS", "VL": "DIQMTQSPSSVSASVGDRVTITCRASQGISSWLAWYQQKPGKAPKLLIYAASSLQSGVPSRFSGSGSGTDFTLTISSLQPEDFATYYCQQANSFPGTFGQGTKVEIK"}, "B22": {"name": "MnC2t1p1_C5 (antibody, V domains shown)", "VH": "B21 VH with R43K, F58Y, P87A", "VL": "B21 VL"}, "B23": {"name": "MnC2t2p1_C11 (antibody, V domains shown)", "VH": "QVQLVQSGAEVKKPGSSVKVSCKASGGTFSRYTIIWVRQAPGQGLEWMGRIIPILDIANYAQKFQGRVTITADKSTSTAYMELSSLRSEDTAVYYCAREGGLDYFGSRNSGWTYTWFDPWGQGTLVTVSS", "VL": "DIQMTQSPSSLSASVGDRVTITCRASQNISSYLNWYQQKPGKAPNLLIYAASSLQSGVPPRFSGSGSGTDFTLTISSLQPEDFATYYCQQSYSTLYSFGQGTKLEIK"}, "B24": {"name": "MnC4t1p1_A11 (antibody, V domains shown)", "VH": "EVQLVESGGGLVQPGGSLRLSCAASGFTFSSYSMNWVRQAPGKGLEWVSYISSSSNTRYYTDSVMGRFTISRDNAKNSLFLQMNSLRAEDTAVYYCASSKGFCSGGSCSDYWGQGTLVTVSS", "VL": "B1 VL with H39Q, C50Y, A52V, G71D, A85V, Q90H"}, "B25": {"name": "MnC4t2p1_B3 (antibody, V domains shown)", "VH": "B2 VH with G59D, Q82H", "VL": "B2 VL with T5I, K103I"}}, "note": "Residue numbers refer to the chain shown, from its start."}
{"molecular_target": "T1, prefusion stabilized SARS-CoV-2 S ectodomain (SARS-CoV-2, UniProt P0DTC2 14-1208)", "T1 construct": "also called SARS-CoV-2 spike ectodomain; ectodomain of the spike (S) homotrimer of SARS-CoV-2", "assay": "ELISA, coated S ectodomain [cont'd]", "units": {"EC50": "µg/mL"}}
{"binder": "B1", "EC50": 0.03}
{"binder": "B2", "EC50": 0.03}
{"binder": "B3", "EC50": 0.02}
{"molecular_target": "T1, prefusion stabilized SARS-CoV-2 S …", "assay": "ELISA, coated S ectodomain [cont'd]", "remark": "another data set of the same source", "units": {"EC50": "µg/mL"}}
{"binder": "B4", "EC50": 0.04}
{"binder": "B5", "EC50": 0.06}
{"binder": "B6", "EC50": 0.04}
{"binder": "B7", "EC50": 0.04}
{"binder": "B8", "EC50": 0.02}
{"binder": "B9", "EC50": 0.22}
{"binder": "B10", "EC50": 0.25}
{"binder": "B11", "EC50": 0.02}
{"molecular_target": "T1, prefusion stabilized SARS-CoV-2 S …", "assay": "ELISA, coated S ectodomain", "units": {"EC50": "µg/mL"}}
{"binder": "B12", "EC50": 0.03}
{"binder": "B13", "EC50": 0.03}
{"binder": "B14", "EC50": 0.03}
{"binder": "B15", "EC50": 0.13}
{"binder": "B16", "EC50": 0.31}
{"binder": "B17", "binding result": "binds"}
{"binder": "B18", "EC50": 0.02}
{"binder": "B19", "EC50": 0.32}
{"molecular_target": "T1, prefusion stabilized SARS-CoV-2 S …", "assay": "ELISA, coated S ectodomain [cont'd]", "remark": "another data set of the same source", "units": {"EC50": "µg/mL"}}
{"binder": "B20", "EC50": 0.33}
{"binder": "B21", "EC50": 0.05}
{"binder": "B22", "EC50": 0.07}
{"binder": "B23", "EC50": 0.02}
{"binder": "B24", "EC50": 0.05}
{"binder": "B25", "EC50": 0.06}
